# The nanobody polyreactivity screen of Harvey et al. (2022)
# Test: yeast display, Sf9 membrane polyspecificity reagent, FACS + sequencing; frameworks hold sequencing errors
# Procedure, shortened: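 Genes from sorted yeast were amplified by colony PCR, read by MiSeq 2 × 250 sequencing and filtered on CDR length. These cells carried a synthetic nanobody library in Saccharomyces cerevisiae BJ5465 and were sorted by FACS into low and high (top ~1%) gates on anti-HA and streptavidin fluorescence. Polyreactivity is labelled according to the gate of origin.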
row,Sequence,polyreactivity (PSR sort gate)
1,QVQLVESGGGLVQAGCSLRLSCAASGLIFRSYAMGWYRQAPGKERELFARISIRGGSTYYADSVKGRFTISRDNAKNTVYLQMNSLKPEDTAVYYCAARPKNNWARTKYGIRYNYWGQGTQVTVSS,high polyreactivity
2,QVQLVESGGGLVQAGCSLRLSCAASGLIFYYYAMGWYRQAPGKERELVAAITSDDRTYYADSVKGRFTISRDNAKNTVYLQMNSLKPEDTAVYYCAARYHGYLAQYRKYGYGYWGQGTQVTVSS,high polyreactivity
3,QVQLVESGGGLVQAGCSLRLSCAASGLIIPVYVMGWYRQAPGKERELVADITTVGSTYADSVKGRFTISRDNAKNTVYFQMNSLKPEDTAVYYFADDPPAQQYWWDHGNYWGQGTQVTVSS,low polyreactivity
4,QVQLVESGGGLVQAGCSLRLSCAASGRTFGVYAMGWYRQAPGKERELVAGIRWRGGSTYYADSVKGRFTISRDNAKNTVYLQMNSLKPEDTAVYYCAADVYLVKYDYWGQGTQVTVSS,low polyreactivity
5,QVQLVESGGGLVQAGCSLRLSCAASGRTFRSDNSMGWYRQSPGKQRELVAAISQGGGTYYADSVKGRFTISRDNAKNTVYLLMNSLIPEDTAVYYCARDAFYADPSLWYYTYDFWGQGTQETVSS,low polyreactivity
6,QVQLVESGGGLVQAGCSLRLSCAASGRTFYFYTMGWYRQAPGKVRELVAAISWSGGSTYYADSVKGRFTISRDNAKYTVYLQMNSLKPEDTAVYYCNAVFFKGSESGLDYWGQGTQVTVSS,high polyreactivity
7,QVQLVESGGGLVQAGCSLRLSCAASGRTFYYNAMGWYRQAPGKERELVAAITRSGSSTYYADSVKGRFTISRDNAKNTVYLQMNSLKPEDTAVYYCAARVGDAYYYWGQGTQVTVSS,high polyreactivity
8,QVQLVESGGGLVQAGCSLRLSCAASGRTLGWNAMGWYRQAPGKERELVAAISSSTSTYYADSVKGRFTISRDNAKNTVYLQMNSLKPEDTAVYYCAALYWGQGTQVTVSS,low polyreactivity
9,QVQLVESGGGLVQAGCSLRLSCAASGRTLKYNAMGGYIQAPGKERELVAAISRSGGRLYYADSVKGRFTMSRDNAKNTVYLQMNSLKPEDTAVYYCAKDRSGSYYNFPEYDYWGQGTQVTVSS,high polyreactivity
10,QVQLVESGGGLVQAGCSLRLSCAASGSIFEPYVMGWYRQAPGKERELVAAIRQTGGSTYYADSVKGRFKISRDNAKNTVYLQMNSLKPEDNAFYYCNAEHNPSGLYDYRGVECEMGYWGQGNQVTVSS,low polyreactivity
11,QVQLVESGGGLVQAGCSLRLSCAASGSIFPANAMGWYRQAPGKEWEFVAAINWSTGTTYNADSVKGRFTISRDNAKNTVYLQMTSLKPEDTAFYHCAAGDWYSGNTTHFYYWGQGTQVTVSS,low polyreactivity
12,QVQLVESGGGLVQAGCSLRLSCAASGSIFYQYSMGWYRQAPGKERELVAAITWDGSRTYYADSVKGRFTISRDNAKNSVYLQMNSLKPEDTSVYYSNAVTRYSLFDYWGLGTQVTVSS,high polyreactivity
13,QVQLVESGGGLVQAGCSLRLSCAASGSIYLVNAMGWYRQAPGKERELVAAIDWSGDTTYYADSVKGRFTISRDYEKNTVYLQMNRLKPEDTAVYYCAAEYEFHEYDYWGQGTQVTVSS,high polyreactivity
14,QVQLVESGGGLVQAGCSLRLSCAASGSSFYTYTMGWYRQAPGKERELVAAITWSGGSTYYADSVKGRFTISRDNAKNTVYLQMNSLKPEDTAVYFCNADQDYQAARPSGMDYWGQGTQVTVSS,low polyreactivity
15,QVQLVESGGGLVQAGCSLRLSCAASGSTFPYNAMGWYRQAPGKERELVATIDATGGSTSYADSVKGRFTISRDNAKNTVYLQMNSLKPEDTAVYYCAAVAYILYFYAYYLTYDYWGQGTQVTVSS,low polyreactivity
16,QVQLVESGGGLVQAGCSLRLSCAASGSVFTVYSMGWYRQAPGKERELVAAITRNGGRTYYADSVKVRFTISRDNSKNTVYLQMKILKPEDTAVYSCAATGLYSRLDYWGQGTQVTVSS,high polyreactivity
17,QVQLVESGGGLVQAGCSLRLSCAASGYIFYNAMGWYRQAPGKERELVAAITSGGSTNYADSVKGRFTISRDNAKNTVYFQMNSLKPEDTADYYCNAVVYSPYRYEYWGQGTQVTVSS,low polyreactivity
18,QVQLVESGGGLVQAGCSLRLSCDASGSIFTWYAIGWYRQAPGKERELVAAITRGGSTYADSVKGRFTISRDNAKNNVYLQMNSLKPEDSAVYYCAARRVPIRVGGYPYYYWGQGSQVTVSS,low polyreactivity
19,QVQLVESGGGLVQAGCSLRLSFAASGFSFRRYALGSYIPAPGKERELVAAITNSGGSTYYADSVKGRFTISRDNAKNSVYLQLNSLKPEDTAVYYCVALRSACAYDYWGQGTQVTVSS,high polyreactivity
20,QVQLVESGGGLVQAGCSLRLSFAASGRTLVPYSMGWYRQAPGKERELVAAKSSGGSTNYADSVKGRFTISRDNAKNTVYLQMNSLKPEDTAVYSCAAYDSVQKYWILGFDYWGQGTQVTVSS,low polyreactivity
21,QVQLVESGGGLVQAGCSLRLSSAASGSIFDDNALGRYRPAPGTDRELVAAISDNDGSTYYADSVKGRFTISRDNAKTTVYVQMNSLKADETAVYYCAATAQEWYPAVYNQYYYWGQGTQVTVSS,low polyreactivity
22,QVQLVESGGGLVQAGCSLRLSSPASGRIFWANVMGWYRQAPGKERELVAAISYSGTGTYYADSVKGRFTISPDYAKNTVYLQMNSLKPEDTAFYYFAKAPYIYYWGQGTHVTVSS,high polyreactivity

row,Sequence,polyreactivity (PSR sort gate)
1,QVQLVESGGGLVQAGCSLRLSWAASGRIIKYNAMGWYRQAPGKERELVAVITSGGSTYYAYSVKGRFTISRDNAKNTVYLQMNSLKPEDTAVYYCAAGFGDGPGNGYYSRYSWDDDYWGQGTQVTVSS,low polyreactivity
2,QVQLVESGGGLVQAGCSLRLTCAASGFIFYYNAMGWYRQAPGKQKELVAAISWSDGGTYYADSVKGRFTISRDNAKNTVSLQMNRLKPEDTAVYYFSGDIDNWSEYDYWGQGTQVTVSS,low polyreactivity
3,QVQLVESGGGLVQAGCSRRLRCAASGFTFRLYAMGWSRQAPGKERELVAATTSGGSTYYADSVKGRFTISRDNAKNTVYLQMNSLKPEDTAVYYCNKLYRTSVEYDYWGQGTLVTVSS,high polyreactivity
4,QVQLVESGGGLVQAGCTLRLSSAASGRIYRYNVMGWSRQAPGKESELVAGISSGGSTNYADSVKGRFTISRDNAKNTVYLQMTSLKPEDTAVYFCSKRWLNAKPYGQAMYSWGQGTQVTVSS,high polyreactivity
5,QVQLVESGGGLVQAGFSLRLSCAASGNIYYKYAMGWYRQAPGKERELVAAITWRVVRTYYADSVKGRFTISRDNAKNTVYLQMNSLKPEDTAVYYCAALSRQSGDYWGQGTQVTVSS,high polyreactivity
6,QVQLVESGGGLVQAGFSLRLSCAASGSTFQSYTMGRSRQAPGKERELVAAISSSGGRTYYADSVKGRYTISRDYAKNTVYLQMNSLNPEDTAVYYCAAVSKSWRGATWYDYWGQGTQVTVSS,high polyreactivity
7,QVQLVESGGGLVQAGGCLRISCAASGSIFPFYVMGRYRQAPGKERELVAAITRSGGSTYYADSVKGRFTISRDNAKNTVYLQMNSLKPEDTAVYYCAKRPHHGSTKYNYWGQGTQVTVSS,low polyreactivity
8,QVQLVESGGGLVQAGGCLRKSCAASGFTFFSYARGWSRQAPGKERELVAGINSSGGSTNYADSVKGRFTISRDNAKNTVYLLMNSLKPEDTAVYYCNADLRSEYDYWGQGTQVTVSS,low polyreactivity
9,QVQLVESGGGLVQAGGCLRLSCAASGFTFIYYVMGWYRQAPGIERELVAAINGRGDRKYYADSVKGRFTISRDNAKNTVYLQMTSLKPEETAVYYCNARTHTWGYSAKFDYWGQGTQVTVSS,high polyreactivity
10,QVQLVESGGGLVQAGGCLRVSCAASGFISGYYAMGGYSQAPGIERELVAAIDWIGGSTYYAESVKGRFTISRDNAKNTEYFQMNSLKPEDTAVYDCAASYKYGSSWGDGYWGQGTQVTVSS,low polyreactivity
11,QVQLVESGGGLVQAGGGLRLSCAASGFTFTKYAMGLYRQAPGKERELVAAITSGTSTYYADSVKGRFTISRDNAKNTVYLQMNSLKPEDTAVYYCAAPLYGRYSYGYWGQGTQVTVSS,high polyreactivity
12,QVQLVESGGGLVQAGGGLRLSCAASGRTIPTYAMGWYRQAPGKERELVATITSAGSTNYADSVKGRFTISRDNAKNTVYLQMNSLKPEDTAVYYCAARRRLAWGQGTQVTVSS,high polyreactivity
13,QVQLVESGGGLVQAGGGLRLSCAASGSYYKYYAMGWYRQAPGKEREFVAAITRSGGSTYYADSVKGRFTISRDNAKNTDYLQMNSLKPEDTAVYYCATDLRTRNYDYWGQGTQVTVSS,high polyreactivity
14,QVQLVESGGGLVQAGGILRLSCAACGITVTSYAMGWYRQAPGKERELVAVITGTGGITYYADSVKGRFTISRDNAKNTVYLQMNSLKPEDTAVYYCAAELELREYDYWGQGNQVTVSS,high polyreactivity
15,QVQLVESGGGLVQAGGILRLSCAASGFIFNSYAMGWYRQAPGKERELVAAITKSGGRTYYADSVKGRFTISRDNEKNTVYFQMNSLKPEDTAVYYCAARAYRSSVYRGDYWGQGTQVTVSS,high polyreactivity
16,QVQLVESGGGLVQAGGILRLSCAASGFIIRGNVMGWYRQAPGKERELVAAISGRGGSTYYADSVKGRFTISRDNAKNTVYLQMNSLKPEDTAVYYCNAAGLYNSRLDYWGQGTQVTVSS,high polyreactivity
17,QVQLVESGGGLVQAGGILRLSCAASGFTFQNNAMGWYRQAPGKERELVARITRSDGSTYYADSVKGRFTISRDNAKNTVYLQMNSLKPEDNAVYYCAARYGLLGSSRGGYWGQGTQVTVSS,low polyreactivity
18,QVQLVESGGGLVQAGGILRLSCAASGFTFWYYVMGWYRQAPGKERELVAAITSSGDSTYYADSVKGRFTISRDNAKNTVYLQMNSLKPEDTAVYYCAAQRYPFERVYWGQGTQVTVSS,high polyreactivity
19,QVQLVESGGGLVQAGGILRLSCAASGFTSWDNDMGWYRQAPGKERELVAAISRGGSTNYADSVKGRFTLSRDNAKNTVYLQMNSLKPEDPAVYYCATAAVTPVWYDYWGQGTQVTVSS,low polyreactivity
20,QVQLVESGGGLVQAGGILRLSCAASGIIFGYNAMGWYRQAPGKERELVAAISYGGGRTYYADSVKGRFTISRDNAKNSVYLQMNSLKPEDTAVYYCAAQYFASRSYGYDYWGQGTQVTVSS,high polyreactivity
21,QVQLVESGGGLVQAGGILRLSCAASGIIFRKNAMGWYRQAPGKERELVAAISSTGASTNYADSVKGRFTISRDNAKNTVYLQMNSLKPEDTAVYYCAASRTRYWKYDYWGPGTQVTVSS,high polyreactivity
